Laboratory results from patent publication US20250313625A1 (ELPISCIENCE SUZHOU BIOPHARMA, published 2025).

T1: human LAG3 (form used in Octet, Biacore and HDX-MS not given) (human, UniProt P18627 23-450, limits assumed)
T1 sequence (looked up): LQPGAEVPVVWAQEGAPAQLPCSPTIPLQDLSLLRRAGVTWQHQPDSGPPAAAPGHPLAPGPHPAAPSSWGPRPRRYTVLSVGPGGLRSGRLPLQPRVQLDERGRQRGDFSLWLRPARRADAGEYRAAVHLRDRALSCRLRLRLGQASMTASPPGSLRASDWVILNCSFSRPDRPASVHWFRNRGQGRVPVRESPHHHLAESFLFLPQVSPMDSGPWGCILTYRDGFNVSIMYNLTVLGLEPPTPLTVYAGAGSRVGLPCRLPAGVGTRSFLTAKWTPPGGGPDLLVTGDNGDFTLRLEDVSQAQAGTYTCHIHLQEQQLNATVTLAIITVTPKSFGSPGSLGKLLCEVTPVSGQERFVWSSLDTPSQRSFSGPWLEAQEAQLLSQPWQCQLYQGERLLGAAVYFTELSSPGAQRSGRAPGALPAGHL

T2: mFc tagged human LAG3 ECD recombinant protein (human, UniProt P18627 23-450)
T2 construct: extracellular domain; purchased from Biointron; not shown: mouse IgG Fc (mFc) tag
T2 sequence (looked up): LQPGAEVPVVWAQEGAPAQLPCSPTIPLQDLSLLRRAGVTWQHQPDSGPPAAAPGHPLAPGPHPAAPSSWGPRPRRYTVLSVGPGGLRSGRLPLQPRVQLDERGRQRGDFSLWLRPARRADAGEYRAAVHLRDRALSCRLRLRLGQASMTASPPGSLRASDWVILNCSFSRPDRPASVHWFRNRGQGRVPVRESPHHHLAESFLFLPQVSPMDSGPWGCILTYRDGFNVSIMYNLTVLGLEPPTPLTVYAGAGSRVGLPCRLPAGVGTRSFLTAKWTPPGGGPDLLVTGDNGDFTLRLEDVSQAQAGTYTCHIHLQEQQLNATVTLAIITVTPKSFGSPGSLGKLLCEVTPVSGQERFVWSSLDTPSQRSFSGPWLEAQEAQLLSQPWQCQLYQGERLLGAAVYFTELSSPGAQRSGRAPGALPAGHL

T3: human LAG3, full length, stably expressed on cells (human, UniProt P18627 23-525)
T3 construct: whole, on cells; also called CHOK1-human LAG3
T3 sequence (looked up): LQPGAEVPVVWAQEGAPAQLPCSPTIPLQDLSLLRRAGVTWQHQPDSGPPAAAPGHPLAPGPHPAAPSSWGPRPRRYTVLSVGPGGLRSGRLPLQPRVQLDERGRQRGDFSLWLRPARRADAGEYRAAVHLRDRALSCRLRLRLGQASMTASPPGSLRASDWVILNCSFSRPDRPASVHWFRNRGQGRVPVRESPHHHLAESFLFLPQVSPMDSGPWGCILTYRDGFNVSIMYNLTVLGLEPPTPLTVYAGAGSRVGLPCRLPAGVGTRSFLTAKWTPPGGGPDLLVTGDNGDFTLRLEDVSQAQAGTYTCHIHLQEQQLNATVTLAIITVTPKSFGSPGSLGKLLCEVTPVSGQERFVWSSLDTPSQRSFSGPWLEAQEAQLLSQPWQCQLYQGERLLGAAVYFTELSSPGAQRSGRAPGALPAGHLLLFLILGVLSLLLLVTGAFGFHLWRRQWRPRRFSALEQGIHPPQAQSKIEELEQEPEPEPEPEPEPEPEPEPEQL


Tests used:
[1] = target: T1, human LAG3 (form used in Octet, Biacore …); assay: BLI (Octet), 1:1 fit
Protocol: (§1) The association and dissociation curves were fit with 1:1 binding model, and the Ka/Kd/KD values for each antibody were calculated.
as §1

[2] = target: T2, mFc tagged human LAG3 ECD recombinant …; assay: competitive FACS: mFc tagged human LAG3 ECD binding to MHC II on Raji cells
Protocol: (§2) Activity of the purified chimeric antibodies to block LAG3 and MHC II interaction was determined by competitive FACS assay. […] After washing, dye labeled anti-mouse Fc 2nd antibody (Sigma) was added and incubated at 37° C. for 1 hour. Fluorescence intensity was detected.

[3] = target: T1, human LAG3 (form used in Octet, Biacore …); assay: BLI (Octet)
[4] = target: T3, human LAG3, full length, stably …; assay: FACS on 293F cells stably expressing human LAG3
Protocol: Briefly the antibodies were incubated with 2×10⁵ target cells at 4° C. for 1 hour. After washing, fluorescence labeled anti-mouse IgG 2nd antibody (Life Technologies) was added and incubated at 4° C. for 1 hour. Geometric median fluorescence intensity (MFI) was detected and EC₅₀ was calculated using GraphPad Prism9.0.
MFI was detected and EC₅₀ was calculated using GraphPad Prism9.0.

[5] = target: T2, mFc tagged human LAG3 ECD recombinant …; assay: competitive FACS: mFc-LAG3 ECD binding to Raji cells (MHC II)
Protocol: as §2

Binder	Kd [3] [nM]	koff [3] [s⁻¹]	kon [3] [M⁻¹ s⁻¹]	also measured
hu029.53 (antibody, V domains shown, humanized from 029c) VH: QVQLVESGGGLVKPGGSLRLSCAASGFTFSSYAMSWIRQAPGKGLEWVAYVTSGGDYIYYADTVKGRFTISRDDAKNSLYLQMNSLRAEDTAMYYCTRVAYDYEWYFDVWGQGALVTVSS VL: DIQMTQSPSSVSASVGDRVTITCKASQDVTTAVAWYQQKPGKAPKLLIYSASYRYTGVPSRFSGSGSGTDFTLTISSLQPEDFATYYCQQHDSSPWTFGQGTKLEIK	–	–	–	Kd [1]: 4.94 nM; koff [1]: 0.0217 s⁻¹; kon [1]: 4.38e+06 M⁻¹ s⁻¹; %Blocking at 2 nM [2]: 21.4%; %Blocking at 4 nM [2]: 31.9%; %Blocking at 8 nM [2]: 98%
hu023.05 (antibody, human IgG4, V domains shown, humanized from 023c) VH: QVQLVQSGAEVKKPGASVKVSCKASGYTFTESPMNWVRQAPGQGFEWMGIIYTDTGEPTYAEEFKGRVTMTRDTSTSTVYMELSSLRSEDTAVYFCASDYGSILYWYFDVWGQGTLVTVSS VL: DIQMTQSPSSLSASVGDRVTITCKASQDVSTAVAWYQQKPGKSPKLLIYSASYRYTGVPSRFSGSGSGTDFTFTISSLQPEDFATYYCQQHYNAPPTFGQGTKLEIK	0.616	0.000198	321000	–
hu023.12 (antibody, human IgG4, V domains shown, humanized from 023c) VH: QVQLVQSGPELKKPGASVKVSCKASGYTFTESPMNWVRQAPGQGFEWMGIIYTDTGEPTYAEEFKGRFVFSLDTSVSTAYLQISSLKAEDTAVYFCVSDYGSILYWYFDVWGQGTLVTVSS VL: DIQMTQSPSSLSTSVGDRVTITCKASQDVSTAVAWYQQKPGKSPKLLIYSASYRYTGVPSRFSGSGSGTDFTFTISSVQPEDFATYYCQQHYNAPPTFGQGTKLEIK	0.189	5.58e-05	296000	–
hu023.08 (antibody, human IgG4, V domains shown, humanized from 023c) VH: QVQLVQSGPEVKKPGASVKVSCKASGYTFTESPMNWVRQAPGQGFEWMGIIYTDTGEPTYAEEFKGRVTMTLDTSTSTVYMELSSLRSEDTAVYFCASDYGSILYWYFDVWGQGTLVTVSS VL: DIQMTQSPSSLSASVGDRVTITCKASQDVSTAVAWYQQKPGKSPKLLIYSASYRYTGVPSRFSGSGSGTDFTFTISSLQPEDFATYYCQQHYNAPPTFGQGTKLEIK	0.689	0.000219	318000	–
hu023.14 (antibody, human IgG4, V domains shown, humanized from 023c) VH: QIQLVQSGPELKKPGASVKISCKASGYTFTESPMNWVRQAPGQGFEWMGIIYTDTGEPTYAEEFKGRFVFSLDTSVSTAYLQISSLKAEDTAVYFCVSDYGSILYWYFDVWGQGTLVTVSS VL: DIQMTQSPSSLSASVGDRVTITCKASQDVSTAVAWYQQKPGKSPKLLIYSASYRYTGVPSRFSGSGSGTDFTFTISSLQPEDFATYYCQQHYNAPPTFGQGTKLEIK	0.24	7.72e-05	322000	–
hu029.40 (antibody, V domains shown, humanized from 029c) VH: QVQLVESGGGLVKPGGSLRLSCAASGFTFSSYAMSWVRQAPGKRLEWVAYVTSGGDYIYYADTVKGRFTISRDDAKNSLYLQMNSLRAEDTAMYYCTRVAYDYEWYFDVWGQGALVTVSS VL: DIQMTQSPSSVSTSVGDRVTITCKASQDVTTAVAWYQQKPGKAPKLLIYSASYRYTGVPSRFSGSGSGTDFTFTISSVQPEDFATYYCQQHDSSPWTFGQGTKLEIK	–	–	–	Kd [1]: 4.79 nM; koff [1]: 0.0224 s⁻¹; kon [1]: 4.68e+06 M⁻¹ s⁻¹; %Blocking at 2 nM [2]: 19.6%; %Blocking at 4 nM [2]: 43.4%; %Blocking at 8 nM [2]: 99.1%
hu023.09 (antibody, human IgG4, V domains shown, humanized from 023c) VH: QVQLVQSGPEVKKPGASVKVSCKASGYTFTESPMNWVRQAPGQGFEWMGIIYTDTGEPTYAEEFKGRVTMTLDTSTSTVYMELSSLRSEDTAVYFCASDYGSILYWYFDVWGQGTLVTVSS VL: DIQMTQSPSSLSTSVGDRVTITCKASQDVSTAVAWYQQKPGKSPKLLIYSASYRYTGVPSRFSGSGSGTDFTFTISSVQPEDFATYYCQQHYNAPPTFGQGTKLEIK	0.704	0.000204	290000	–
hu023.06 (antibody, human IgG4, V domains shown, humanized from 023c) VH: QVQLVQSGAEVKKPGASVKVSCKASGYTFTESPMNWVRQAPGQGFEWMGIIYTDTGEPTYAEEFKGRVTMTRDTSTSTVYMELSSLRSEDTAVYFCASDYGSILYWYFDVWGQGTLVTVSS VL: DIQMTQSPSSLSTSVGDRVTITCKASQDVSTAVAWYQQKPGKSPKLLIYSASYRYTGVPSRFSGSGSGTDFTFTISSVQPEDFATYYCQQHYNAPPTFGQGTKLEIK	0.657	0.000161	246000	–
038c (antibody, human IgG4, V domains shown, human IgG4 S228P / kappa chimeric antibody; also called chimeric antibody 038; not shown: human kappa light chain constant region (pcDNA3.4-hIgGk vector)) VH: DVQVQESGPGLVKPSQSLSLTCSVTGYSITSGYYWNWIRQFPGNKLEWMGYISYDGSNEYNLSLKNRLSITRDTSKNQFFLKLNSVTTEDTATYYCAREEDGYYGGMDYWGQGTSVTVSS VL: DIVMTQSHKFMSASVGVRVSITCRASQDVDTAVAWYQQKPGQSPKLLIYWASTRHTGVPDRFTGSGSGTDFTLTISNVQSEDLADYFCQQYSSYPYTFGGGTKLEIK	–	–	–	EC50 [4]: 2.3 nM; IC50 [5]: 5.2 nM; TOP blocking (%) [5]: 98.4%
